From patent US20090176711A1, “INHIBITORS OF AMYLOID PRECURSOR PROTEIN PROCESSING” (priority 2008, published 2009)
Non-standard residues stand in square brackets, D forms with d. No end group written: not given here. *: point of attachment. Biotin = O=C1N[C@H]2[C@H](CS[C@H]2CCCCC(=O)*)N1; Dnp = O=[N+]([O-])c1ccc(*)c([N+](=O)[O-])c1; Mca = COc1ccc2c(CC(=O)*)cc(=O)oc2c1; Ahx = NCCCCCC(=O)O

Assays:
[1] = tested on: cleavage of F-Substrate M (f-Sub M) by rhBACE1; experiment: Fluorometric (FRET) assay for cleavage of F-Substrate M by rhBACE; assay type: biochemical, human; conditions: cleavage of f-Sub M by rhBACE1 (FIG. 29A)
Source text: This assay system utilizes fluorescence resonance energy transfer (FRET) technology. Substrate M was synthesized with two fluorophores, a fluorescent donor and a proprietary quenching acceptor (purchased from a commercial source, R&D Systems). […] Upon cleavage of substrate by β-secretase, the fluorophore is separated from the quenching group, restoring the full fluorescence yield of donor.
Substrate labeled with fluorophores will be called F-Substrate M (R&D Systems). Recombinant human β-secretase will be called rhBACE (recombinant human β-site APP cleavage enzyme) (purchased from R&D systems).
F-Substrate M (20 μM) was preincubated with varying concentrations of complementary peptides in assay buffer (0.1 M NaOAc, pH 4.0) for 1 hr at RT. rhBACE (70 nM) in assay buffer was added. Cleavage by rhBACE was detected by reading emitted fluorescence level.
In this assay system, fluorescence resonance energy transfer (FRET) technology was utilized. Swedish mutant APP substrate (f-Sub M) with a fluorescent donor and a proprietary quenching acceptor (7-methoxycoumarin-4-acetyl-SEVNLDAEFRK(Dnp)-RR-NH2) was purchased from R&D systems, Inc (MN, USA). […] Upon cleavage of substrate by rhBACE1 (R&D Systems, Inc., MN, USA), the fluorescence donor is separated from the quenching group, restoring the full fluorescence yield of the donor. f-Sub M (10 μM) was pre-incubated with HC peptide in assay buffer (0.1 M NaOAc, pH 4.0) for 2 h at RT. After pre-incubation, substrate and HC peptide mixture in assay buffer was transferred to FluoroNunc™ 96 well white plate (Nunc, Roskilde, Denmark), and rhBACE1 (70 nM) was added. Time-dependent emission of fluorescence (excitation at 320 nm, emission at 405 nm) was monitored in a Molecular Devices SpectraMax Gemini EM fluorescence reader (CA, USA) for 1 h at 37° C. All assays were carried out in duplicate.

[2] = tested on: production of Aβ in HEK 293-APP cells; experiment: Measurement of Aβ level in culture media of HEK293-APP cells (Aβ1-40 immunoassay); assay type: cell-based, human
Method: Human embryonic kidney (HEK) 293 cells stably transformed with the gene for APP695 (HEK 293-APP) were used for studies on the inhibitory activity of HC peptides. HEK 293-APP cells were generously supplied by Dr. T W Kim (Columbia University, NY, USA). HEK 293-APP cells were cultured in Dulbecco's Modified Eagle's Medium (DMEM) (Invitrogen, CA, USA) with 10% fetal bovine serum (HyClone, UT, USA) and 300 μg/ml of geneticin (Invitrogen, CA, USA) in a humidified atmosphere of 5% CO2, 95% air at 37° C. Cells were subcultured after trypsinization, and the medium was changed every 2-3 days.
Most of the APP processing including the cleavage by BACE1 occurs in endoplasmic reticulum (ER)/Golgi complex and endosome. It was investigated if c-Sub M and the deletion series would inhibit processing of APP in the cells. For this examination, HEK293 cells transformed with wild type human APP genes for our investigation was chosen.
The culture media from the peptide-treated cells (see above) was harvested and centrifuged at 3500×g for 10 min. Amount of Aβ in the supernatant was determined with human Aβ1-40 immunoassay kits (Signal Select™, BioSource, CA, USA) according to the instruction provided by the company.

[3] = tested on: CTFβ accumulation (cleavage of APP by BACE1) in HEK 293-APP cells; experiment: Level of CTFβ in HEK 293-APP cells (immunoblot, 6E10); assay type: cell-based, human; conditions: HEK293-APP cells, 9 h
Method: When the confluency of the cells reached 90%, the cells were washed with PBS once, and HC peptide in serum free DMEM was added to the cells. […] The lysed cells were centrifuged at 12000×g for 10 min at 4° C. The protein in the supernatant was determined by bicinchoninic acid assay (Pierce, IL, USA) [Smith, P. K., Krohn, R. I., Hermanson, G. T., Mallia, A. K., Gartner, F. H., Provenzano, M. D., Fujimoto, E. K., Goeke, N. M., Olson, B. J., and Klenk, D. C. […] After electrophoresis, the proteins in the gel were electrophoretically transferred onto a polyvinylidene difluoride (PVDF) membrane at 100 mA for 80 min. The blotted membrane was fixed with 0.2% glutaraldehyde in PBS for 45 min at RT and treated for 5 min in boiling PBS. CTFβ (the C-terminal fragment of APP generated by BACE1) was detected by treatment of the membrane with 0.5 μg/ml of anti-Aβ Nterminal 6E10 antibody (Signetlabs, Inc., MA, USA) followed by incubation with 0.2 μg/ml of anti-mouse antibody coupled with HRP (Amersham Biosciences Ltd. Uppsala, Sweden). The developed film was scanned and the density of CTFβ band was determined by Scion Image Program (Scion Corporation, MD, USA).

[4] = molecular target: T1, f-Sub M (7-methoxycoumarin-4-acetyl-SEVNLDAEFRK(Dnp)-RR-NH2); experiment: cell-based or functional assay
T1 peptide: Mca-SEVNLDAEFRK(Dnp)RR-NH2

[5] = molecular target: T2, recombinant human β-secretase (rhBACE1) (human, UniProt P56817 22-457, limits assumed); experiment: ELISA, c-Sub M immobilized
T2 construct: Bought reagent; also called recombinant human β-site APP cleavage enzyme
T2 sequence (P56817 22-457 limits assumed): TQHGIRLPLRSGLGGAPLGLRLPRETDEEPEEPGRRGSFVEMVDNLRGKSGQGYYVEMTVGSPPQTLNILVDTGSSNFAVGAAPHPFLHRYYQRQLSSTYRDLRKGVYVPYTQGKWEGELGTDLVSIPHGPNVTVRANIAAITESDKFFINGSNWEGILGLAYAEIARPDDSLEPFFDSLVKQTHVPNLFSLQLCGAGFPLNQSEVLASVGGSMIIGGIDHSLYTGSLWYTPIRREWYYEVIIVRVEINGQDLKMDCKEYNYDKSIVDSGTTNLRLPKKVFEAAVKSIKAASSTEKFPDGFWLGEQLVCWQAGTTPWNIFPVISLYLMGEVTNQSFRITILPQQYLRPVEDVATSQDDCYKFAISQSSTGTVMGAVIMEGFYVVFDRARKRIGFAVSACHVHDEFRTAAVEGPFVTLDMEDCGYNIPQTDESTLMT

[6] = molecular target: T3, N-terminally biotinylated Substrate M; experiment: plate assay: complementary peptide on wells, biotinylated substrate, streptavidin-HRP
T3 construct: also called bio-Sub M; Sub M
T3 peptide: Biotin-SEVNLDAEFR
Method: (§1) Complementary peptides (0.2, 2, 20, and 200 μM) were dissolved in phosphate buffered saline (PBS) (pH 7.4) and fixed to microtiter wells for 5 hr at 37° C. The wells were blocked with blocking buffer (3% BSA/PBS) for 1 hr at 37° C. Either N-terminally biotinylated Substrate W or M (20 μM) in blocking buffer was added and incubated for overnight at 4° C. Streptavidin-horseradish peroxidase in blocking buffer was added to detect resulting bound substrates. The plate was incubated for 2 hr at room temperature (RT), followed by addition of 3,3′,5,5′-tetramethyl-benzidine (TMB) as substrate for horseradish peroxidase for color reaction.

[7] = molecular target: T4, N-terminally biotinylated Substrate W; experiment: plate assay: HC peptide chemically coupled to wells, bio-Sub W, streptavidin-HRP (FIG. 27)
T4 construct: also called bio-Sub W; Sub W
T4 peptide: Biotin-SEVKMDAEFR
Method: (§2) Reacti-Bind™ maleic anhydride-activated polystyrene plate (Pierce, IL, USA) was coated with 50 μl of HC peptide (200 μM in distilled water) by chemical coupling for 3 h at room temperature (RT) and washed three times with phosphate buffered saline (PBS) containing 0.05% tween 20 (PBST). The plate was blocked with blocking buffer (0.5% gelatin in PBS) for 1 h at RT. After discarding blocking buffer, biotinylated BACE1 substrates (200 μM) in blocking buffer was applied on the plate and incubated for 2.5 h at RT. Each well was washed three times with PBST. The bound biotinylated BACE1 substrates were detected by incubation with streptavidin-horseradish peroxidase (Str-HRP, 125 mU/ml in blocking buffer) for 2 h at RT. Color reaction was carried out with 50 μl of 3,3′,5,5′-Tetramethylbenzidine Liquid Substrate (Sigma-Aldrich, MO, USA). After stopping the reaction by addition of an equal volume of 1 N HCl, absorbance at 450 nm was read in an automated ELISA reader (EL 312e, Bio-Tek Instruments, VT, USA). All assays were carried out in duplicate.
Thereafter, it was investigated if the c-Sub M and the deletions series bind to wild type Sub W. The results will give us important information on possibility of inhibition of wild type of APP cleavage in cells by the HC peptides derived from Sub M in view of the poor cleavage of Sub W by rhBACE1 in vitro. […] Thus, there is possibility that the HC peptides for Sub M (c-Sub M series) or its peptidomimetics will inhibit the cleavage of wild type APP by BACE1 in cells.

[8] = molecular target: T4, N-terminally biotinylated Substrate W; experiment: plate assay: complementary peptide on wells, biotinylated substrate, streptavidin-HRP
Method: as §1

[9] = molecular target: T3, N-terminally biotinylated Substrate M; experiment: plate assay: HC peptide chemically coupled to wells, bio-Sub M, streptavidin-HRP (Table 1)
Method: as §2
The HC peptides were chemically coupled to the surface of a microtiter plate to minimize the different coating efficiency of peptides, and the Sub M labeled with biotin (bio-Sub M) was applied. bio-Sub M bound to c-Sub but not to Sub M-c (FIG. 25A). To test inhibitory activity of HC peptide, FRET assay system was used as described above. […]

[10] = molecular target: T3, N-terminally biotinylated Substrate M; experiment: plate assay: HC peptide chemically coupled to wells, bio-Sub M, streptavidin-HRP (Table 2)
Method: as §2
The binding and inhibitory activities of these peptides were determined as described in Experimental Procedures. The concentration of HC peptides and f-Sub M was 0.5 mM and 10 μM, respectively. All the experimental data for the binding activity as well as for the inhibitory activity were within 5% error range.

## NH2-(CH2)5-CO-Cys-Ile-Gln-Ile-His-Phe-NH2 ([Ahx]CIQIHF-NH2; N-terminus assumed; SMILES CC[C@H](C)[C@H](NC(=O)[C@H](CCC(N)=O)NC(=O)[C@@H](NC(=O)[C@H](CS)NC(=O)CCCCCN)[C@@H](C)CC)C(=O)N[C@@H](Cc1c[nH]cn1)C(=O)N[C@@H](Cc1ccccc1)C(N)=O) [AHX-c-Sub M ΔN3C1]
[1]
  in vitro inhibitory activity relative to non-modified c-Sub M ΔN3C1: by half
[2]; 6.25 μM, 9 h
  reduction of amount of Aβ released: about 70%
[2]; increasing concentrations
  amount of Aβ released into the culture medium: reduced in a concentration dependent manner
[3]
  accumulation of the cleavage product CTFβ: inhibited the accumulation of both forms of CTFβs

## β-secretase inhibitor IV [reference compound]
[2]; 2 μM
  inhibition of production of Aβ: about 90%
[3]
  accumulation of the cleavage product CTFβ: inhibited accumulation of only the nonphosphorylated form of CTFβ

B1: c-Sub M (peptide)
peptide: SEFCIQIHFR-NH2
notes: Hydropathic complementary decapeptide to Sub M, read 5'-3'
[4]
  inhibition of cleavage of f-Sub M by rhBACE1 (FRET), HC peptide 100 fold over substrate: ~50%
  inhibitory activity for the cleavage of f-Sub M by rhBACE1 (FRET; HC peptide 1 mM, f-Sub M 10 µM): 45%
[5]
  binding result: no binding
[6]
  binding result: binds
[7]
  fold binding to Sub W relative to c-Sub W: 4 fold

B2: c-Sub W (peptide)
peptide: SEFCIHLHFR-NH2
notes: Hydropathic complementary decapeptide to Sub W, read 5'-3'
[8]
  binding result: binds
[9]
  binding result: binds

B3: c-Sub M ΔC1 (peptide)
peptide: SEFCIQIHF-NH2
[4]
  inhibitory activity for the cleavage of f-Sub M by rhBACE1 (FRET; HC peptide 1 mM, f-Sub M 10 µM): 90%
[10]
  binding result: binds

B4: Sub W-c (peptide)
peptide: RLHFYLRLKA-NH2
notes: Hydropathic complementary decapeptide to Sub W, read 3'-5'
[9]
  binding result: binds
